Experimental data taken from the supplement of paper PMC7877785.
± gives the uncertainty stated by the source.

Experiment: self-splicing fitness, log relative to wild type (ln ratio); higher = more splicing; Tetrahymena group I intron in knt gene, E. coli kanamycin selection, DiMSum; sequences stand for … in CUCUCU…GGAGGGAAAAGUUAUCAGGCAUGCACCUGGUAGCUAGUCUUUAAACCAAUAGAUUGCAUCGGUUUAAAAGGCAAGACCGUCAAAUUGCGGGAAAGGGGUCAACAGCCGUUCAGUACCAAGUCUCAGGGGAAACUUUGAGAUGGCCUUGCAAAGGGUAUGGUAAUAAGCUGACGGACAUGGUCCUAACCACGCAGCCAAGUCCUAAGUCAACAGAUCUUCUGUUGAUAUGGAUGCAGUUCACAGACUAAAUGUCGGUCGGGGAAGAUGUAUUCUUCUCAUAAGAUAUAGUCGGACCUCUCCUUAAUGGGAGCUAGCGGAUGAAGUGAUGCAACACUGGAGCCGCUGGGAACUAAUUUGUAUGCGAAAGUAUAUUGAUUAGUUUUGGAGUACUCGUGGUCG
Summary of the method: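 Pooled colonies went to amplicon sequencing on an Illumina HiSeq 2500 after six replicate transformations. The plates were LB agar with 100 μg/mL carbenicillin, 50 μM IPTG and 0.2% rhamnose, with or without 25 μg/mL kanamycin, incubated overnight at 37°C or 30°C. The E. coli BL21(DE3) library had all eight P1ex-region intron nucleotides randomised, the intron placed in the knt kanamycin-resistance gene on pET-22b(+). DiMSum fitness is the error-weighted combination of replicate fold changes, kanamycin against none, normalised to wild type.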

Sequence | self-splicing fitness (ln) (30 °C) | self-splicing fitness (ln) (37 °C)
CCAAAGCAAUAUUACGAUUA | -3.39 ± 0.2 | -3.27 ± 0.25
CGAUAGCAAUAUUACGUGUG | -0.978 ± 0.057 | -0.336 ± 0.07
UUAUAGCAAUAUUACGCGGC | -2.42 ± 0.49 | -2.4 ± 0.37
AGGAAGCAAUAUUACGGUAA | -2.47 ± 0.2 | -2.26 ± 0.18
GCCUAGCAAUAUUACGCACU | -0.602 ± 0.083 | 0.143 ± 0.078
UAAUAGCAAUAUUACGAGAG |  | -2.68 ± 0.3
ACACAGCAAUAUUACGGCAA | -1.49 ± 0.077 | -0.943 ± 0.081
UUGAAGCAAUAUUACGACAC | -1.07 ± 0.13 | -0.278 ± 0.2
GAUCAGCAAUAUUACGUUCU | -2.42 ± 0.1 | -1.46 ± 0.12
ACAGAGCAAUAUUACGUUGG | -2.73 ± 0.16 | -3.57 ± 0.19
UCUCAGCAAUAUUACGACCG |  | -1.07 ± 0.47
AGAUAGCAAUAUUACGAGCG | -0.464 ± 0.12 | -1.08 ± 0.15
GCGCAGCAAUAUUACGAUUA | -1.02 ± 0.13 | -1.48 ± 0.13
CAUCAGCAAUAUUACGUAAC | -2.81 ± 0.15 | -2.01 ± 0.24
ACCUAGCAAUAUUACGCGAA | -3.01 ± 0.19 | -1.99 ± 0.12
CUGUAGCAAUAUUACGUAAG | -0.583 ± 0.081 | -0.353 ± 0.082
AAUCAGCAAUAUUACGCGUU | -0.956 ± 0.057 | -0.765 ± 0.076
AUAGAGCAAUAUUACGGUAG | -3.5 ± 0.16 | -1.38 ± 0.13
GGCAAGCAAUAUUACGAUAA | -1.23 ± 0.11 | 0.298 ± 0.13
UUCCAGCAAUAUUACGAAAG | -2.6 ± 0.27 | -2.33 ± 0.27
UAACAGCAAUAUUACGGGCC | -3.47 ± 0.26 | -2.98 ± 0.26
UAGGAGCAAUAUUACGUUGG |  | -1.27 ± 0.28
ACAUAGCAAUAUUACGUAGC | -2.78 ± 0.13 | -2.04 ± 0.19
CAGCAGCAAUAUUACGUUAA | -3.01 ± 0.11 | -1.66 ± 0.1
GGCCAGCAAUAUUACGUGAU | -1.31 ± 0.075 | -0.482 ± 0.097

Sequence | self-splicing fitness (ln) (30 °C) | self-splicing fitness (ln) (37 °C)
CUCCAGCAAUAUUACGUCCA | -3.35 ± 0.39 | -3.24 ± 0.33
UCAUAGCAAUAUUACGAUCU | -3.02 ± 0.19 | -1.88 ± 0.18
GAGCAGCAAUAUUACGCGAA | -3.01 ± 0.25 | -1.27 ± 0.15
GCCGAGCAAUAUUACGACCC | -2.25 ± 0.34 | -0.208 ± 0.39
GCCGAGCAAUAUUACGCAGC | -3.12 ± 0.29 | -2.22 ± 0.27
ACGUAGCAAUAUUACGUAGG | -3.76 ± 0.18 | -1.73 ± 0.13
CGGUAGCAAUAUUACGAACU | -1.3 ± 0.17 | -0.755 ± 0.17
GGGGAGCAAUAUUACGUUUC | -2.65 ± 0.2 | -2.64 ± 0.29
CAUAAGCAAUAUUACGCUUG | -3.08 ± 0.29 | -3.01 ± 0.25
UAUUAGCAAUAUUACGGCCA | -0.0346 ± 0.21 | -0.902 ± 0.16
CUAGAGCAAUAUUACGUGAC | -1.08 ± 0.12 | -1.31 ± 0.17
UUUAAGCAAUAUUACGUAGU | -2.62 ± 0.13 | -2.13 ± 0.18
UUGAAGCAAUAUUACGAUUU | -1.58 ± 0.17 | -0.941 ± 0.18
AUAAAGCAAUAUUACGUGGG | -2.92 ± 0.095 | -3.02 ± 0.15
CCUUAGCAAUAUUACGACUU | -3.8 ± 0.35 | -2.73 ± 0.32
GUUAAGCAAUAUUACGCUCU | -1.24 ± 0.1 | -1.12 ± 0.11
GUGAAGCAAUAUUACGCAAU | -0.705 ± 0.088 | -0.623 ± 0.12
AUUGAGCAAUAUUACGAUUC | -2.51 ± 0.22 | -2.86 ± 0.47
CGCGAGCAAUAUUACGUGGG | -3.81 ± 0.29 | -2.54 ± 0.21
ACUUAGCAAUAUUACGCAGA | -2.32 ± 0.26 | -0.913 ± 0.15
CAGUAGCAAUAUUACGGGCU | -3.56 ± 0.26 | -1.21 ± 0.15
AUGCAGCAAUAUUACGAAUG | -2.15 ± 0.17 | -2.51 ± 0.28
CUAGAGCAAUAUUACGCCCG | -0.259 ± 0.2 | 0.187 ± 0.18
GCUCAGCAAUAUUACGGGGU | -3.51 ± 0.15 | -1.39 ± 0.14
